For the assay, the target named is mouse Nicastrin I241C mutant (mouse) (UniProt P57716). Put plainly: cross-linking.
Sequence of UniProt P57716 (P57716 28-708 I241C): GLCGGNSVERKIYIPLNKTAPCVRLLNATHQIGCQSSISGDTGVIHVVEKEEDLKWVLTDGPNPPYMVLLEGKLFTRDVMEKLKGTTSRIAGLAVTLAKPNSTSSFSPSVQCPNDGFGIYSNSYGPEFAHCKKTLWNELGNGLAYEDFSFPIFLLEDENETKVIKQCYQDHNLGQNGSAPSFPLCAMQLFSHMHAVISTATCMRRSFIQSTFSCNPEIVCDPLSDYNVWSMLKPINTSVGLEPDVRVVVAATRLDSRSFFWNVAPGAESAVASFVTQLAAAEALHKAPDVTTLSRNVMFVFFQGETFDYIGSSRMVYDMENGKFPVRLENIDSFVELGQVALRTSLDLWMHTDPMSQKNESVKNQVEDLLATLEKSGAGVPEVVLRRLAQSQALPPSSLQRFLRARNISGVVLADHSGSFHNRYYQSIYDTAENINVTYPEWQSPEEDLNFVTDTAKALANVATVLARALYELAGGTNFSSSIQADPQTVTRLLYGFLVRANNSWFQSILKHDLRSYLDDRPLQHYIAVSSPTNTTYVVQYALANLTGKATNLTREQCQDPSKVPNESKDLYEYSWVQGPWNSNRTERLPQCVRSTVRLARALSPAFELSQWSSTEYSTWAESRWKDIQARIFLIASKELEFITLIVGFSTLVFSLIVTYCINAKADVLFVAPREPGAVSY

For APPC99‐3xFLAG‐K28C (domain or fragment), the percent of the substrate cross-linked to NCT (disulfide bond) stood at 15.4%.

The values above are taken from PMC6576158.
